# B1: InflaMab: 210 kDa bispecific mouse antibody to IL-1R1 and NLRP3; light chain SEQ ID NO: 57, heavy chain with scFv SEQ ID NO: 59 (protein)
# light: MVSSAQFLGLLLLCFQGTRCDIVMTQSPATLSVTPGDRVSLSCRASQSISDYLSWYQQRSHESPRLIIKYASQSISGIPSRFSGSGSGSDFTLSINSVEPEDVGVYYCQHGHSFPLTFGSGTKLELKRADAAPTVSIFPPSSEQLTSGGASVVCFLNNFYPKDINVKWKIDGSERQNGVLNSWTDQDSKDSTYSMSSTLTLTKDEYERHNSYTCEATHKTSTSPIVKSFNRNEC
# heavy: MGWTLVFLFLLSVTAGVHSQIQLVQSGPELRKPGETVRISCKASGYPFTTAGLQWVQKMSGKGLKWIGWMNTQSEVPKYAEEFKGRIAFSLETAASTAYLQINNLKTEDTATYFCAKSVYFNWRYFDVWGAGTTVTVSSAKTTAPSVYPLAPVCGDTTGSSVTLGCLVKGYFPEPVTLTWNSGSLSSGVHTFPAVLQSDLYTLSSSVTVTSSTWPSQSITCNVAHPASSTKVDKKIEPRGPTIKPCPPCKCPAPNLLGGPSVFIFPPKIKDVLMISLSPIVTCVVVDVSEDDPDVQISWFVNNVEVHTAQTQTHREDYNSTLRVVSALPIQHQDWMSGKEFKCKVNNKDLPAPIERTISKPKGSVRAPQVYVLPPPEEEMTKKQVTLTCMVTDFMPEDIYVEWTNNGKTELNYKNTEPVLDSDGSYFMYSKLRVEKKNWVERNSYSCSVVHEGLHNHHTTKSFSRTPGKGSAGGSGGDSEVQLVESGGGLVKPGGSLKLSCAASGFTFSDYYMYWVRQTPEKRLEWVATISDGGTYTYYPDSVKGRFTISRDNAKNNLYLQMNSLKSEDTAMYYCARGWVSTMVKLLSSFPYWGQGTLVTVSAGGGGSGGGGSGGGGSQAVVTQESALTTSPGETVTLTCRSSTGAVTTSNYANWVQEKPDHLFTGLIGGTNNRAPGVPARFSGSLIGDKAALTITGAQTEDEAIYFCALWYSNYWVFGGGTKLTVLGQPK
# Assays:
# THP1 cells [1] = assay: Caspase-1 activation in THP1 cells (FAM-FLICA staining, confocal); type: cell-based
# Experimental: THP1 cells, for FIG. 34, were cultured in 96-well plates at 100,000cells/200 ul complete media. PMA (100 ug/ml for 72 hours) was used to differentiated THP-1 cells into macrophages. Following 24 hours of rest, differentiated THP1 cells were stimulated with LPS (1 ug/ml) for 3 hours, treated with the IL-1R1/NLRP3 Ab (1 μg/ml) for 30 minutes, followed by ATP (5 mM) for 1 hour. Caspase-1 activation was assessed by staining cells with a non-cytotoxic Fluorescent Labelled Inhibitor of Caspase-1 (FAM-FLICA) and DAPI (nuclear stain). Cells were treated with LPS alone (negative control), LPS+ATP (positive control), mouse IgG2a (1 ug/ml, Ab control), or IL-1r/NLRP3 bi-specific Ab (1 ug/ml, experimental). Representative confocal images are shown for each group. Green=active caspae-1 and blue=Dapi/nuclear stain.
# (§1) Internalization of Inflamab—see FIG. 35. THP1 cells, for FIG. 35, were cultured in 96-well plates at 100,000cells/200 ul complete media. Differentiation of THP1 cells was induced by PMA (100 ug/ml for 72 hours). Following 24 hours of rest, differentiated THP1 cells were stimulated with LPS (1 ug/ml) for 3 hours, treated with a pHrodo red labelled IL-1r/NLRP3 Ab (1 ug/ml) for 30 minutes, followed by ATP (5 mM) for 1 hour. The internalization of the Ab was tracked using a pHrodo red labelled bi-specific Ab that only fluoresces when internalized.
# THP1 cells [2] = assay: Internalization of pHrodo red labelled bi-specific Ab in THP1 cells; type: cell-based; details: pHrodo red labelled Ab 1 ug/ml 30 min; differentiated THP1, LPS then ATP; confocal; FIG. 35A
# Experimental: as §1
# [3] = tested on: Bone Marrow Derived Macrophages (BMDMs); assay: Inflammasome activation assay in bone marrow derived macrophages (cytokine ELISA); type: cell-based, C57BL/6 mice; details: murine BMDMs, FIG. 36
# Experimental: Bone marrow cells were isolated from the tibias and femurs of C57BL/6 mice. To obtain bone marrow-derived dendritic cells (BMDCs), cells were cultured for 7 days at 37° C. and 5% CO2 in Iscove's modified Dulbecco's medium (IMDM) supplemented with 8% fetal calf serum (FCS), 1% penicillin/streptomycin (GE Healthcare Life Sciences, Marlborough, MA, USA), 1% glutamax (Thermo Fisher Scientific, Waltham, MA, USA) and 20 μM β-mercaptoethanol (Sigma-Aldrich, St. Louis, MO, USA) in the presence of 20 ng/mL gm-CSF (Preprotech, Rocky Hill, NJ, USA). To obtain bone marrow-derived macrophages (BMDMs), cells were cultured for 7 days in Roswell Park Memorial Institute medium (RPMI) supplemented with 10% FCS, 100 U/mL penicillin/streptomycin, 0.1 mM nonessential amino acids, 1% pyruvate and 2 mM L-glutamine (Thermo Fisher Scientific) in the presence of 20 ng/mL m-CSF (eBioscience)
# For in vitro stimulation, 0.1×10^6 cells per well were added to 96-well flat-bottom plates (Greiner Bio-One, Kremsmunster, Austria). Cells were first primed with LPS (50 ng/mL) for 2 hours, after which cholesterol crystals (2 mg/mL) were added in the presence or absence of MCC950 (1 μM, Adipogen, San Diego, US) for an additional 4 hours. […]
# InflaMab inhibits IL-1beta secretion in BMDMs—see FIG. 36. […] IL-1β release was measured in the supernatant by ELISA.
molecule,measurement,setting,value
B1,caspase-1 activation,"THP1 cells [1]; differentiated THP1, LPS 1 ug/ml 3 h, Ab 1 μg/ml 30 min, ATP 5 mM 1 h, FAM-FLICA, FIG. 34",prevents
same,caspase-1 activation in THP1 cells that have internalized the bi-specific Ab as compared to cells that did not,"THP1 cells [1]; pHrodo red labelled Ab 1 ug/ml 30 min, LPS then ATP, confocal, FIG. 35B",significant reduction
same,internalization of the Ab,THP1 cells [2],shows the internalization
same,secretion of TNFalpha,"[3]; same cells, specificity",no effect
same,IL-1beta secretion,"[3]; LPS 50 ng/ml, Inflamab 30 min, Alum 50 μg/ml 1 h, ELISA",dose-dependently inhibit
